molecular target: recombinant GST-tagged CaN A subunit, Q08209; assay: in vitro peptide pull-down (biotinylated peptide, immunoblot quantification); details: chain shown with the change; recombinant GST-CaN (200 ng); parent: est. 47; read off a plot

In order of rising response (% CaN input recovered):
1. MAGPHTVIVIPGPHEE [APP peptide (APP core CaN-binding sequence in the PVIVIT peptide) T644P]  5
2. MAGPHTVFVITGPHEE [APP peptide (APP core CaN-binding sequence in the PVIVIT peptide) I641F]  23
3. MAGPHTMIVITGPHEE [APP peptide (APP core CaN-binding sequence in the PVIVIT peptide) V640M]  43
4. MAGPHTVIIITGPHEE [APP peptide (APP core CaN-binding sequence in the PVIVIT peptide) V642I]  44
5. MAGPHTVIFITGPHEE [APP peptide (APP core CaN-binding sequence in the PVIVIT peptide) V642F]  44
6. MAGPHIVIVITGPHEE [APP peptide (APP core CaN-binding sequence in the PVIVIT peptide) T639I]  54

— paper PMC11910330, “Familial Alzheimer’s disease mutations in amyloid precursor protein impair calcineurin signaling to NMDA receptors” (The Journal of Biological Chemistry, 2024)
